This note sets out measurements from patent publication US20040115656A1.

In this experiment the target is androgen receptor (UniProt P10275). Kind of experiment: cell-based or functional assay.
UniProt P10275, sequence (P10275 whole entry): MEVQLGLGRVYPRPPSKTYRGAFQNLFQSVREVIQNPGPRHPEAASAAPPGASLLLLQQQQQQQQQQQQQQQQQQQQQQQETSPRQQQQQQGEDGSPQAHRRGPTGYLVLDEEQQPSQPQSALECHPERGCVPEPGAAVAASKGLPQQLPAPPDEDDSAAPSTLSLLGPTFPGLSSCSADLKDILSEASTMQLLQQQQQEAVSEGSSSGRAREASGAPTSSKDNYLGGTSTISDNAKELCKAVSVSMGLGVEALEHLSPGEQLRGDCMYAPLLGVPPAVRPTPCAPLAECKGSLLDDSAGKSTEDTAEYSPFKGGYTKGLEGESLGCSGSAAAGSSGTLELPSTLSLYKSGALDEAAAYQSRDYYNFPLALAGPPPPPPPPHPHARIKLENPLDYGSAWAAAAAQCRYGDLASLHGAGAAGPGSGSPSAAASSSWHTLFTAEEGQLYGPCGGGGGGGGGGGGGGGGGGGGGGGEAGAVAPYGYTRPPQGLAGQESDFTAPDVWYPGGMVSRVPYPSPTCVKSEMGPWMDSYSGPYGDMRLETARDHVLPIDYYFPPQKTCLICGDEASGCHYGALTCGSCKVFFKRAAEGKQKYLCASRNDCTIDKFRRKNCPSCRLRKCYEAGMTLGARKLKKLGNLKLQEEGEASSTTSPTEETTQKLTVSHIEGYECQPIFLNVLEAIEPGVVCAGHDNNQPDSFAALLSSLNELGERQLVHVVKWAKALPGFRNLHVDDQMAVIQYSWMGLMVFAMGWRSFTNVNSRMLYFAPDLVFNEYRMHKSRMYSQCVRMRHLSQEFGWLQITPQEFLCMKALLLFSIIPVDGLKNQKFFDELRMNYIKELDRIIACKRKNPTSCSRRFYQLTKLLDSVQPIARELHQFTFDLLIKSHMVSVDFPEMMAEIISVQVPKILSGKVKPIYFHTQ

The substance “human androgen receptor down-regulatory-associated protein” returned a luciferase activity of AFP promoter (ARE) reporter in MCF7 and G2 cells (times (relative to the control reporter)) of 2.
